Assay results taken from article PMC4807051, “Determinants of Cofactor Specificity for the Glucose-6-Phosphate Dehydrogenase from Escherichia coli: Simulation, Kinetics and Evolutionary Studies” (PLoS ONE, 2016).

Tests used:
[1] = tested on: T1, NC(=O)c1ccc[n+]([C@@H]2O[C@H](COP(=O)(O)OP(=O)(O)OC[C@H]3O[C@@H](n4cnc5c(N)ncnc54)[C@H](OP(=O)(O)O)[C@@H]3O)[C@@H](O)[C@H]2O)c1; experiment: purified protein; assay type: biochemical, Escherichia coli; settings: 25°C, apparent
T1 construct: full length; N-terminal 6xHis tag cut by TEV protease (Gly-His left before Met1); plasmid pET-TEV-EcG6PDH from pETG6PDH

[2] = tested on: T2, NC(=O)c1ccc[n+]([C@@H]2O[C@H](COP(=O)(O)OP(=O)(O)OC[C@H]3O[C@@H](n4cnc5c(N)ncnc54)[C@H](O)[C@@H]3O)[C@@H](O)[C@H]2O)c1; experiment: purified protein; assay type: biochemical, Escherichia coli; settings: 25°C, apparent
T2 construct: full length; N-terminal 6xHis tag cut by TEV protease (Gly-His left before Met1); plasmid pET-TEV-EcG6PDH from pETG6PDH

Substance: EcG6PDH; glucose-6-phosphate dehydrogenase from Escherichia coli (Escherichia coli K-12)
- Km ([1]; near-saturating G6P): 0.0075 ± 0.0008 mM
- kcat ([1]; near-saturating G6P): 174 ± 2 s⁻¹
- kcat/Km ([1]; near-saturating G6P): 2.32e+07 ± 2.4e+06 M⁻¹ s⁻¹
- Km ([2]; near-saturating G6P): 5.09 ± 0.4 mM
- kcat ([2]; near-saturating G6P): 288 ± 5 s⁻¹
- kcat/Km ([2]; near-saturating G6P): 60000 ± 4000 M⁻¹ s⁻¹

Substance: EcG6PDH; glucose-6-phosphate dehydrogenase from Escherichia coli (Escherichia coli K-12; K18A)
- Km ([1]; near-saturating G6P (40 mM)): 0.099 ± 0.003 mM
- kcat ([1]; near-saturating G6P (40 mM)): 143 ± 1 s⁻¹
- kcat/Km ([1]; near-saturating G6P (40 mM)): 1.4e+06 ± 40000 M⁻¹ s⁻¹
- Km ([2]; near-saturating G6P (40 mM)): 2.477 ± 0.26 mM
- kcat ([2]; near-saturating G6P (40 mM)): 109 ± 2 s⁻¹
- kcat/Km ([2]; near-saturating G6P (40 mM)): 40000 ± 4000 M⁻¹ s⁻¹

Substance: EcG6PDH; glucose-6-phosphate dehydrogenase from Escherichia coli (Escherichia coli K-12; K18A/R50A)
- Km ([1]; near-saturating G6P (40 mM)): 17.696 ± 1.453 mM
- kcat ([1]; near-saturating G6P (40 mM)): 185 ± 7 s⁻¹
- kcat/Km ([1]; near-saturating G6P (40 mM)): 10000 ± 900 M⁻¹ s⁻¹
- Km ([2]; near-saturating G6P (40 mM)): 11.736 ± 0.804 mM
- kcat ([2]; near-saturating G6P (40 mM)): 165 ± 4 s⁻¹
- kcat/Km ([2]; near-saturating G6P (40 mM)): 10000 ± 700 M⁻¹ s⁻¹

Substance: EcG6PDH; glucose-6-phosphate dehydrogenase from Escherichia coli (Escherichia coli K-12; K18T)
- Km ([1]; near-saturating G6P (15 mM)): 0.243 ± 0.0053 mM
- kcat ([1]; near-saturating G6P (15 mM)): 282 ± 1 s⁻¹
- kcat/Km ([1]; near-saturating G6P (15 mM)): 1.1e+06 ± 30000 M⁻¹ s⁻¹
- Km ([2]; near-saturating G6P (15 mM)): 8.352 ± 0.307 mM
- kcat ([2]; near-saturating G6P (15 mM)): 298 ± 4 s⁻¹
- kcat/Km ([2]; near-saturating G6P (15 mM)): 30000 ± 1000 M⁻¹ s⁻¹

Substance: EcG6PDH; glucose-6-phosphate dehydrogenase from Escherichia coli (Escherichia coli K-12; R50A)
- Km ([1]; near-saturating G6P (50 mM)): 0.382 ± 0.048 mM
- kcat ([1]; near-saturating G6P (50 mM)): 189 ± 5 s⁻¹
- kcat/Km ([1]; near-saturating G6P (50 mM)): 500000 ± 60000 M⁻¹ s⁻¹
- Km ([2]; near-saturating G6P (50 mM)): 14.662 ± 2.176 mM
- kcat ([2]; near-saturating G6P (50 mM)): 171 ± 10 s⁻¹
- kcat/Km ([2]; near-saturating G6P (50 mM)): 10000 ± 1000 M⁻¹ s⁻¹
